Test results from publication PMC8791618.

Assays:
[1] = target: Haliangium ochraceum encapsulated ferritin (Haliangium ochraceum) (UniProt D0LZ73); assay: LC-MS; purified Loaded-Enc at ~2 uM on a reverse-phase C4 column, water/acetonitrile with 0.1% formic acid; deconvoluted masses
[2] = target: Haliangium ochraceum encapsulated ferritin (Haliangium ochraceum) (UniProt D0LZ73); assay: SDS-PAGE; purified Loaded-Enc on 15% acrylamide SDS-PAGE, Coomassie blue stain
[3] = target: Haliangium ochraceum encapsulin (Haliangium ochraceum) (UniProt D0LZ74); assay: cryo-EM structure; Loaded-Enc; asymmetric (C1) reconstruction without imposed symmetry, 3.7 A; local refinement of a single EncFtn density in CryoSPARC with PDB 5N5F docked; settings: scale: EncFtn decamers per encapsulin nanocompartment
[4] = target: Haliangium ochraceum encapsulated ferritin (Haliangium ochraceum) (UniProt D0LZ73); assay: as above
[5] = target: Haliangium ochraceum encapsulin (Haliangium ochraceum) (UniProt D0LZ74); assay: HDX-MS; Empty-Enc against Loaded-Enc nanocompartments; labelling in phosphate buffer in D2O pH 8.0 at 4 C, up to 24 hours; pepsin digestion
[6] = target: Haliangium ochraceum encapsulin (Haliangium ochraceum) (UniProt D0LZ74); assay: cryo-EM structure; Loaded-Enc (3 mg/ml) vitrified; reconstruction with imposed I1 symmetry (2.5 A), then symmetry expansion and masked focused refinement of the fivefold pentamer (closed 2.2 A, open 2.4 A), Relion3.1

## Haliangium ochraceum encapsulated ferritin (from UniProt D0LZ73 1-131) (enzyme)
[1]
  stoichiometry N: 2
[2]
  stoichiometry N: 2
[3]
  stoichiometry N: 4
[4]
  stoichiometry N: 10
[5]
  reduction in hydrogen/deuterium exchange of encapsulin peptide 21-37, Loaded-Enc against Empty-Enc: 12%

## Haliangium ochraceum encapsulin (from UniProt D0LZ74 1-266) (natural protein)
[6]
  stoichiometry N: 60
